Results published in patent publication US20240084023A1 (NGM BIOPHARMACEUTICALS, published 2024).
Numbering of substitutions follows the chain as printed.

Tests used:
Experiment in all cases: flow cytometry on transfected 293XP cells
[1] = target: T1, GCGR extracellular domain alanine mutant K90A (human, UniProt P47871 26-136, limits assumed)
T1 construct: expressed in 293XP cells
T1 chain: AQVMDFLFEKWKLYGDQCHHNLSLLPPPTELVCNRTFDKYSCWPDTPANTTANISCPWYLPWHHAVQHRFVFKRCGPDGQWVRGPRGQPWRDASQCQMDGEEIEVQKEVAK
Method: (§1) To assist in gathering information on the GCGR epitope that the 6B5 binning group bound to, “alanine scanning mutagenesis” was undertaken. These alanine scanning mutagenesis platform is a technique used for mapping both linear and conformational antigen epitopes by evaluating the effects of point mutations across a target protein. Single residues in a target protein are replaced by alanine one at a time to construct a mutant library. Each variant is assayed for its ability to bind to an antibody of interest. […] Amino acids across the extracellular domain of GCGR were mutated to alanine and the anti-GCGR antibody Hz6B5 was tested for binding to the alanine mutants.
(§2) The wild-type GCGR extracellular domain and the alanine mutants were each transfected into 293XP cells and incubated for 24 hours. Antibody Hz6B5 was incubated with the transfected cells for 30 minutes at 4° C. After washing with PBS/1% BSA/0.1% azide, the cells were incubated with a labeled anti-mouse Fc antibody (Jackson Immunoresearch) for 30 minutes at 4° C. After washing with PBS/1% BSA/0.1% azide, the cells were analyzed using a flow cytometer BD (FACSCalibur instrument) and cytometric analytical software (FlowJo). A serum sample from a mouse immunized with human GCGR was used as positive control to confirm expression of the alanine mutants.

[2] = target: T2, GCGR extracellular domain alanine mutant K98A (human, UniProt P47871 26-136, limits assumed)
T2 construct: expressed in 293XP cells
T2 chain: T1 chain with A65K, K73A
Method: as §1, §2

[3] = target: T3, GCGR extracellular domain alanine mutant R116A (human, UniProt P47871 26-136, limits assumed)
T3 construct: expressed in 293XP cells
T3 chain: T1 chain with A65K, R91A
Method: as §1, §2

[4] = target: T4, GCGR extracellular domain alanine mutant L50A (human, UniProt P47871 26-136, limits assumed)
T4 construct: expressed in 293XP cells
T4 chain: T1 chain with L25A, A65K
Method: as §1, §2

[5] = target: T5, GCGR extracellular domain alanine mutant L38A (human, UniProt P47871 26-136, limits assumed)
T5 construct: expressed in 293XP cells
T5 chain: T1 chain with L13A, A65K
Method: as §1, §2

[6] = target: T6, GCGR extracellular domain alanine mutant F31A (human, UniProt P47871 26-136, limits assumed)
T6 construct: expressed in 293XP cells
T6 chain: T1 chain with F6A, A65K
Method: as §1, §2

[7] = target: T7, GCGR extracellular domain alanine mutant L32A (human, UniProt P47871 26-136, limits assumed)
T7 construct: expressed in 293XP cells
T7 chain: T1 chain with L7A, A65K
Method: as §1, §2

[8] = target: T8, GCGR extracellular domain alanine mutant D41A (human, UniProt P47871 26-136, limits assumed)
T8 construct: expressed in 293XP cells
T8 chain: T1 chain with D16A, A65K
Method: as §1, §2

[9] = target: T9, GCGR extracellular domain alanine mutant F62A (human, UniProt P47871 26-136, limits assumed)
T9 construct: expressed in 293XP cells
T9 chain: T1 chain with F37A, A65K
Method: as §1, §2

[10] = target: T10, GCGR extracellular domain alanine mutant T75A (human, UniProt P47871 26-136, limits assumed)
T10 construct: expressed in 293XP cells
T10 chain: T1 chain with T50A, A65K
Method: as §1, §2

[11] = target: T11, GCGR extracellular domain alanine mutant Y65A (human, UniProt P47871 26-136, limits assumed)
T11 construct: expressed in 293XP cells
T11 chain: T1 chain with Y40A, A65K
Method: as §1, §2

[12] = target: T12, GCGR extracellular domain alanine mutant H44A (human, UniProt P47871 26-136, limits assumed)
T12 construct: expressed in 293XP cells
T12 chain: T1 chain with H19A, A65K
Method: as §1, §2

[13] = target: T13, GCGR extracellular domain alanine mutant P110A (human, UniProt P47871 26-136, limits assumed)
T13 construct: expressed in 293XP cells
T13 chain: T1 chain with A65K, P85A
Method: as §1, §2

- % positive cells [1]: 83%
- % positive cells [2]: 82.5%
- % positive cells [3]: 85.9%
- % positive cells [4]: 86.6%
- % positive cells [5]: 3.3%
- % positive cells [6]: 85.1%
- % positive cells [7]: 76.9%
- % positive cells [8]: 84.3%
- % positive cells [9]: 62.8%
- % positive cells [10]: 84.9%
- % positive cells [11]: 64.8%
- % positive cells [12]: 82.2%
- % positive cells [13]: 84.7%
B1: anti-GCGR antibody Hz6B5 (antibody, V domains shown)
VH: QVQLVQSGAEVKKPGSSVKVSCKASGFTFTNHWLGWVRQAPGQGLEWIGDIYPGGYYINYNEKFKGRVTITADESTSTAYMELSSLRSEDTAVYYCARHTNYGSDYWGQGTTVTVSS
VL: DVVMTQSPLSLPVTLGQPASISCRSSQSIVDSYGNTFLEWYQQRPGQSPRLLIYKVSNRLSGVPDRFSGSGSGTDFTLKISRVEAEDVGVYYCFQGSHVPWTFGQGTKLEIK
notes: Humanized 6B5
